From the supplement of paper PMC10567573
± gives the standard deviation.

Experiment: protein stability index of a GFP-peptide fusion (GPS, HEK-293T) (PSI 1-6); higher = more stable
Details: c terminus: a fixed tail appended
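Note: 24-mer peptide tiles fused after GFP, lentivirally expressed, FACS-sorted into six equal bins by GFP/DsRed ratio, decoded by Illumina sequencing, PSI is the read-weighted mean bin number.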

Sequence | protein stability index (treatment: DMSO) | protein stability index (treatment: MLN4924 1 uM, 8 h)
HAVVGVATALAPLQTDHYAALLGS [SPSB2] | 2.37 ± 0.18 | 2.29 ± 0.39
LLSQKKTISFLGCAIQMFSFLFLG [OR10K2] | 2.5 ± 0.69 | 2.41 ± 0.25
FGIGSEILKNLSQVAMRCRCSSMH [SAT1] | 2.56 ± 0.58 | 2.45 ± 0.48
ARSESVLLHMPQPVNPELTAGPIT [TRIM43] | 4.31 ± 0.061 | 4.41 ± 0.078
ELTSVTAWMLCKLLDKAGVPPGVV [ALDH8A1] | 2.98 ± 0.42 | 2.69 ± 0.52
DLDRMGVMTLPSDLRKHRRKLLSP [PPFIA4] | 3.72 ± 0.25 | 3.73 ± 0.12
PCKTRDDEPVCGRPLGIRAGPNGT [APMAP] | 3.9 ± 0.36 | 4.14 ± 0.093
QAALRAARLRHQELFRLRGIKAQV [NOP53] | 2.4 ± 0.19 | 2.86 ± 0.57
EEKSFWEMEKSFREEEKTFWKKYR [CCDC70] | 4.18 ± 0.68 | 4.232 ± 0.013
RINLVAAIFSAPAFPAAVSSMKKF [PSD2] | 2.37 ± 0.46 | 2.27 ± 0.59
LIQPQDQSCWAFLPDLCLCRVFWW [FBXO39] | 2.88 ± 0.78 | 2.9 ± 0.55
MIQTSKTEITELRRTLQGLEIELQ [KRT13] | 3.02 ± 0.28 | 3.07 ± 0.24
TENSALQLQVTEREEVRGRELTGL [LMNB1] | 5.14 ± 0.2 | 5.13 ± 0.28
RRSSSKCIHDHHCGSQLSSTKGSR [NETO1] | 3.74 ± 0.33 | 3.92 ± 0.36
LLDADWSINAGSWMWLSCSSFFQQ [CRY1] | 2.67 ± 1.1 | 2.57 ± 0.22
ITVKNLRMAIGYLHSHRHLYPEGI [POMT2] | 3.02 ± 0.38 | 2.88 ± 0.58
EVLLGTPYDLAIDMWSLGCILVEM [DYRK1B] | 2.79 ± 0.37 | 2.96 ± 0.51
RTVGFEEQASAFQEQEIDGKSLLL [SAMD13] | 4.55 ± 0.2 | 4.85 ± 0.18
ACLLQLAEIQEACCEFLKRQLDPS [KLHL20] | 2.32 ± 0.58 | 2.16 ± 0.053
YTDYVATRWYRAPELLVGDTQYGS [CDKL4] | 2.56 ± 0.7 | 2.38 ± 0.34
TPSNFQHIGHVGWDPNTGFDLNNL [WASL] | 3.24 ± 0.3 | 3.47 ± 0.4
TPTLKVFMHENLYFTNRKVNSVCW [DCAF4] | 2.26 ± 0.4 | 1.95 ± 0.22

Sequence | protein stability index (treatment: DMSO) | protein stability index (treatment: MLN4924 1 uM, 8 h)
EPIILPCSHNLCQACARNILVQTP [TRIM9] | 2.45 ± 0.18 | 2.68 ± 0.23
MTPAEAEMHFLENAKKLSMYGVDL [EPB41L3] | 3 ± 0.29 | 3.03 ± 0.52
SRKGELTPLPETGYWRVRLWNGDK [TRIM39] | 2.63 ± 0.057 | 2.58 ± 0.36
KQLALDHFKKTKKMGGKDFSFRYQ [ATL3] | 2.86 ± 0.17 | 3.12 ± 0.19
VNLQVATYSKFQPQSPDFLDITNP [UFD1] | 2.53 ± 0.23 | 2.57 ± 0.27
LSINRYERKKNLTLALEALVQLRG [ALG2] | 2.25 ± 0.36 | 2.09 ± 0.2
HKLVSASTDNIVSQWDVLSGDCDQ [RBBP5] | 4.73 ± 0.18 | 4.68 ± 0.11
LVALKCTCCYFKFIIEYYNIRPAD [FBXO34] | 2.69 ± 0.38 | 2.81 ± 0.9
AESLKGKLEEERAKLHDVELHQVA [GNB5] | 5.02 ± 0.33 | 5.23 ± 0.29
RIFDIKDGKLLWEQELYNNFVYNS [WASL] | 2.15 ± 0.67 | 2.13 ± 0.62
PSAALTTMQLFSKQNPSRQEVTKL [FBXO28] | 4.16 ± 0.37 | 4.37 ± 0.23
PFGILSPNVLCSMSGKSPVESSLN [FBXO34] | 2.88 ± 0.33 | 2.64 ± 0.37
NGDITSFLLSVYAPGSSVEYQCQN [CFHR2] | 2.38 ± 0.58 | 2.09 ± 0.24
EDHFPLLFSEASECMLLVFGIDVK [MAGEA10] | 2.73 ± 0.84 | 2.7 ± 0.77
FHLAPARAGHHPNQYATCRLCGRQ [ZBED2] | 2.58 ± 0.41 | 3.14 ± 0.68
GYCSNQLAAKALLDQKKQDPRVQD [NET1] | 4.89 ± 0.23 | 4.9 ± 0.21
FASGFKRAFKIKDFANTIPGHGGI [CDS1] | 2.65 ± 0.43 | 2.47 ± 0.66
EIRDWRGPQLEGEKDWGLEGYVWR [ZSWIM9] | 3 ± 0.56 | 3.29 ± 0.57
LRTLRDFPAEERARVLDRRGCSRV [ANKRD9] | 3.91 ± 0.32 | 4.06 ± 0.29
RDCLVLNQGYLSEAGASLVDQKLE [PI4K2A] | 4.29 ± 0.28 | 4.54 ± 0.11
GNTVPAVEPGTPPLDILAQPLEAS [DNAAF3] | 5.19 ± 0.18 | 5.03 ± 0.29
RQNLKLLVEETSCQQNMIQELIET [CEP70] | 3.42 ± 0.16 | 3.43 ± 0.45
